Reference: patent US20190032056A1 (VITRISA THERAPEUTICS, published 2019)

Target: complement Factor D present in C1q-depleted human serum (human, UniProt P00746 26-253)
Assay: cell-based or functional assay

Sequence of complement Factor D present in C1q-depleted human serum (P00746 26-253 limits assumed): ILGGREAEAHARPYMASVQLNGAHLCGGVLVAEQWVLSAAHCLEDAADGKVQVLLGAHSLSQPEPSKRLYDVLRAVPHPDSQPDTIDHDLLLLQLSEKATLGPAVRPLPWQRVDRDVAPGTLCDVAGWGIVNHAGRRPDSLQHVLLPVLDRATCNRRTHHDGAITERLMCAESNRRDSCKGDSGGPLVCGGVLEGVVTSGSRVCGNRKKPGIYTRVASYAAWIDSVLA

IC50 inhibiting alternative complement in human serum (fD-dependent lysis of rabbit red blood cells): 3.3 nM
B1: anti-fD Fab with an amino acid sequence of heavy chain variable region according to SEQ ID NO:7 and light chain variable region according to SEQ ID NO:8 (Fab)
heavy: EVQLVQSGPELKKPGASVKVSCKASGYTFTNYGMNWVRQAPGQGLEWMGWINTYTGETTYADDFKGRFVFSLDTSVSTAYLQISSLKAEDTAVYYCERGGVNNWGQGTLVTVSSASTKGPSVFPLAPSSKSTSGGTAALGCLVKDYFPEPVTVSWNSGALTSGVHTFPAVLQSSGLYSLSSVVTVPSSSLGTQTYICNVNHKPSNTKVDKKVEPKSCDKTHT
light: DIQVTQSPSSLSASVGDRVTITCITSTDIDDDMNWYQQKPGKVPKLLISGGNTLRPGVPSRFSGSGSGTDFTLTISSLQPEDVATYYCLQSDSLPYTFGQGTKVEIKRTVAAPSVFIFPPSDEQLKSGTASVVCLLNNFYPREAKVQWKVDNALQSGNSQESVTEQDSKDSTYSLSSTLTLSKADYEKHKVYACEVTHQGLSSPVTKSFNRGEC
